# From the DeepSol protein solubility set
# Assay: soluble on expression in E. coli; label from the status in PepcDB or PDB records
row,Sequence,soluble on expression in E. coli
1,MSLASTVVIKEGSGSGAVAACTVPQVLEQIAQSFPESIAAISERGRITFAELEFRSNQLARLLVKRGVKVGAIVVLMTGRSIDTLIGMTAILKAGGVYMPLDVGLGPEAISGAIQDAQPALVLTEHQPALIDAIEQRRLSDELDASRLEPGDPLALELTPSLPAYVMFTSGSTGRPKGVVVPHRAIVRLVVDTDFMTLSPATVMLHAAPLAFDASTLEIWGPLLNGGQIVIVEDAVLSVDRIAETLGRFSVNAAWLTAGLFHLMVDERPEALSGLTTLLAGGDVLSPAHVRRAMALLPDCTIVNGYGPTENTTFTCCYSIPRTGWGDGPVPIGFPISGTSVHILSDTLEPVADGEEGQLCAGGIGLALGYLNRPELTAEKFIVDPLSDDPAARLYLTGDYVRRRSDGAIEFRGRRDRQVKINGVRIELDGVEQALRQDPVLADAAVVLSADRGDAKRIVAFLKPLPGDAAGDLEAGVIRRLKEQFPAQAIPSTIKVVDELPLNKNGKIDRAKLLSDLIATEQLGAGTDEEDFSDDSVGSIVADIWSALLGKSVDARANLFDLGATSLQMIAAHERIQAAIGIRFPVTDLFAHPSIAEFQACLDGASHRSLAIAGAAREGHHHHHH,soluble
2,MSLATFEKQKIEQAIGSIQGALGVLEKGQMTEIMPPKRIQALPIQQNVDTPEAINAFASMITEYSEMTKISDGPAVKMEEAEDGFILSIPSELLFESGSATITNKEGILFLKRTALEINKLSNDMHIKVIGHTDNDRLRPTATYKDNWELSIARGVNVAKMLLEERVNPARISAGGNGEFDPVASNATPEGKAKNRRVDLYFFSVSKNEEEIKKSQKNSEGHHHHHH,soluble
3,MSLATLDVNPELYQAQLADKIARLKAMFVDYSMPELEVFESPVANYRMRAEFRIWHEGDDMYYIMFNQETREKYRVDQFPAASRLINDLMPLLMDAMKGSPILRHKLFQVDFLSTLSGEILVSLLYHRQLSEEWITAAQALKQRLNDEGFNLNLIGRARKMKVVLDRDYVVENLQVNGQPYVYKQVENSFTQPNAKVAEKMLEWAVDCTQESKGDLLELYCGNGNFSLALAQNFERVLATELAKPSVEAAQFNIAANQIGNVQIIRMSAEEFTQAMEGKREFNRLKDAGVDLQSYRCNTIFVDPPRSGMDIDTCKMVQGYERILYISCNPETLQENLQVLGETHQVVRFALFDQFPYTHHMEAGVMLERKKEGHHHHHH,soluble
4,MSLATPSFGNSSPQLTFTHVANFMNDAAADVSAVDAKQLAQIRQFLKANKTNLIESLNTIRQNVTSSGDHNKLRSTIANLLQINVDNDPFFAQSEDLSHAVEFFMSERSSRLHIVYSLLVNPDIDLETYSFIDNDRFNVVGKLISIISSVIQNYDIITASSLAHDYNNDQDMFTIVSLVQLKKFSDLKFILQILQILNLMILNTKVPVDIVNQWFLQYQNQFVEFCRNINSTDKSIDTSSLQLYKFQNFQDLSYLSETLISRISSLFTITTILILGLNTSIAQFDIQSPLYMDTETFDTVNSALENDVATNIVNEDPIFHPMIHYSWSFILYYRRALQSSESFDDSDITKFALFAESHDVLQKLNTLSEILSFDPVYTTVITVFLEFSLNFIPITASTSRVFAKIISKAPEQFIENFLTNDTFEKKLSIIKAKLPLLNEEGHHHHHH,soluble
5,MSLAVLPDVPKSKDMKHRPRFLPSIGPMKKRVAFFSGCLMDTMFLPTNNATLKLLQLAGCDIVIPPEQACCGALHGHSGEKNTGKELAKQNIAAFEALDVDAVITNAGGCGAFLTEYDHLLKDDPEWSERAAAFVQKLKDFSSVLVELDFHQMDLALETPQVVTYQDSCHLRNVMHTSLEPRQLLKSIKGAEFKEMEKADSCCGSAGIYNIVEVEMSMKILDSKMAAVKATEAILIVTANPGCLLQMKLGIEREGLSGKVRAVHLADLLLEAAGHKTSEGHHHHHH,soluble
6,MSLAVNNIIKRIRNIMRQDAGINGDAQRIEQMTWMIFLKVYDTQEETWEYKASRESKTYQSIIPKDLRWRNWAVDEKDGEALTGEALLSFVNEKLFPALKNLPVDANTPRAKSIVQETFADLNQYMKNGTLLRQVVNIVNEIEFDDADDRHTFGDIYEGILKDLQSAGNAGEFYTPRALTDFIVMMLDPKLGETFGDFTSGTGGFLTSALNYMGKSVRSAEDGEKLQNAVVGQEWKPLPYLLSITNLLLHDIEAPNIANCDSLGTNVTDFKETDKVDVIGMNPPYGGSTEDSVKNNFPLRYRSSETADLFIALIMYRLKAGGRCGVIIPDGFLFGTDGAKLALKENLLRKFNLHTIIRLPGSIFSPYTSIATNILFFNNEEAEGCEEGFKTKETWFYRLDMPEGYKHFSKNKPMKVEHTLPIQEWWNDRKEIVSSETGEKSRVFTAQQLLDLNCNFDQCKFPKEEEEILPPAEGHHHHHH,soluble
7,MSLCGIAGTLNSSCFSSKKLLAALAHRGPSGHGEFSHQGVNLFHARLSIQDLSPAGAQPMHRHHLSIVFNGEIYNHLELRAKVADYPFSTRSDTETILALFERFGERSLEWMDGMFALAILDQRTHKLFLARDRMGKKPLFYYQEGEEFLFASELNALLTLKPLQIDHAKLSAFLRCGFFPHDGAPYQGVQSLPQGSYAFIDLHHPRPLSPQRYFDLLSLYQAPKIEGFEASKEAVELALKESVKNRLESSDLEVGSFLSGGIDSSLITALASFFTPKLKTFTVAFEGAYDESSLAELVAKRYKTDHTTLHLNPSKLKEEVKGILACYGRPFMDSSAIPSYYVSQEAKKHLTVILNGDGADELFGGYRRYVPMSHGWLKLARPLSLLLPLLPLPKEKKSLYNYLHRLLAMSRKRGLDFYLSATIDSFEDAYAFSPNPHTQTLDQEITQILEDSSLSSLSKMLYLDSQNLLLSDLLPKMDIATMAHSLEGRSPFLGKSLLEVAPRIKDEYKIFGKSTKFILRELAKKYLPHALLEQPKRGFEVPLRAWVEGELKELIFDSLSKNCLSRELIESRFVDALLDKPQDFAPEKRAKMLWSLFSLEVWHEHYQKACEEGHHHHHH,soluble
8,MSLDAITVDLNYDKNNVAVITPVWSQEWSVANVLGGWVCRSNRNENEGACEETHLVWWYAFGAYSKIRLRFREQISHAEITLILLGSVRDACYTGVINMNAAACQWGRSLKLRIPSEELAKIPTSGTWKATLVLDYLQWGGDDPLGTSTTDITLNVTDHFAENAAIYFPQFGTATPRVDLNLHRMNASQMSGRANLDMCLYDGGVKARSLQMKIEGSNKSGTGFQVIKSDSADTIDYAVSMNYGGRSIPVTRGVEFSLDNVDKAATRPVVLPGQRQAVRCVPVPLTLTTQPFNIREKRSGEYQGTLTVTMLMGTQTPEGHHHHHH,not soluble
9,MSLDAVKMVKGKVAEIMQNDRLGGLDVLEAEFSKTWEFKNHNVAVYSIQGRRDHMEDRFEVLTDLANKTHPSIFGIFDGHGGETAAEYVKSRLPEALKQHLQDYEKDKENSVLSYQTILEQQILSIDREMLEKLTVSYDEAGTTCLIALLSDKDLTVANVGDSRGVLCDKDGNAIPLSHDHKPYQLKERKRIKRAGGFISFNGSWRVQGILAMSRSLGDYPLKNLNVVIPDPDILTFDLDKLQPEFMILASDGLWDAFSNEEAVRFIKERLDEPHFGAKSIVLQSFYRGCPDNITVMVVKFRNSSKTEEQEGHHHHHH,soluble
10,MSLDENKPVLVLGATGKQGGSAARYLLERGWTVRAFVRDPGAPKAKELRELGASLHTGDLEDAGSVRAAMKGAYGVFSIQTPMTPAGVEGEERQGKICADAARDLGVQHYVHSSVGGAERPEGVNWRLSKLAIEQRIQENALRFTFLRPSYFMENLNHDMSPLVMEDGVLTFRRGLGPANTLQMISGPDIGYFAADAFDDPDTFGGAKIELAGDELTGEQIAAAFGRHTGLPARFVSVPIPELHRTGFEWQAISYTWLNGIGYHADIPTLRARFPQLLTLDQWLARTGWTPRDPAEGHHHHHH,soluble
11,MSLDGQEAAGILERARASVDPELRRAVDSLPGSMRRIALHHFGWEHADGTPAAGNAGKAIRPALVLAAVRALGGPQSSAVRAAAAVELIHNFTLLHDDVMDRDTTRRHRPTAWTVFGDADAILAGDALQALAHRLLAEDPHPASAAAAARLAACVIELCAGQHADTAMERRGPGEVTLDECLAMAEAKTGALLGCACALGALYAGAEEEDVEALDAFGREAGLAFQLIDDVIGIWGDPSRTGKPAGADLMARKKSLPVVAALAAGTPAAAELAELYAVPHQEGELERTVLAVERAGGRDWAQQQAADRMARAMHELSRAIPDPEAAGGLLALAEFVTRRSNEGHHHHHH,soluble
12,MSLDGTVLLIDYFEYEREKTKIIFDNIGEYDFIEVENLKKFYSIFKDLDSITLIIMDIAFPVEKEGLEVLSAIRNNSRTANTPVIIATKSDNPGYRHAALKFKVSDYILKPYPTKRLENSVRSVLKICQRFRYEFDSAHVISMSIEDYISKEFKVASRAGQSLSVILMAPVGLEKEPSEQSTQISSELQDQIQNLAIEKVKLSLRSTDTAILNANRDILVILPFTNAAGAQKVLQKIQDNVREGLKSLNINYDDYYYAVSVTFPNDGKTFQSLMEKAVKKVEDKIMLEKITSIGVNILDNARNSYKKFNKEGHHHHHH,soluble
13,MSLDHFQIDHIAIAVPSLNTSLPLFEQALQATASHEERLPHHHINAVFINGRGVGYELIEPHPSNVSMQRFLAKQNNRPAFHHIAFSVANIETAIGMLKEKHVRLTSELPLIGSFGRKVAFIHPSSTGGLLVELCEGKTEGHHHHHH,soluble
14,MSLDIADVAKRTGVPASTLRYYEKKGLLKSLAGRGQRRQFAADVADRLALIALGQAAGFSLDEVGAMLVDLQVDRQMLMAKADELDARIKRLQAMSKGLRHAAQCPEKDHLACPKFQQLMKLSAAGALGEKQARTKAFVTDEGHHHHHH,soluble
15,MSLDKDTVYAVVDIETTGTSVTDGDRIIQIGCVFVQHNQVINHFETDVNPLKEIPAAISRLTGITNKRVRHAPLFDDVAGTLYSLLTNTVFVAHNVNFDLPFINAELERVGYPALPIAAVDTVSLSQILLPTATSFRLRDLSRLFNIEHDNPHSADSDASATAELFIFLFRRLRALPMVTLQRMIDLQADLPLQTTTLFRVAQQLNEEGHHHHHH,not soluble
16,MSLDKMKAITFFDLDGTLLDGTSQITPEITAAVAALKDNQILPLIATGRTLCEIQPIMKASGIDSAIVMNGQFIHYEGKTIYSDEFTTEECVSLHEHVKQRGHELAFYNERRIFCTGHTGTVKQAYDYIHSAVPEIDPTGYENDAVNMMLVLSQHGDDDEYYYERFPELTFYRNGPFSIDIVRKGVSKGSGVKNLFNTLGLNGIPTYAFGDGINDLALFEACDYGIAMGNAREELKEKATFISTKNTENGIVNGLKKFDLLEGHHHHHH,soluble
17,MSLDLFIPEVAYINPQALKHPLGNEAYQYLKSMGVPIIESNRVSIDTDSPVKNYVKAKKTILLTVSKQKKLQQCKPSADYQFALSSSCPGHCEYCYLQTTQGEKPYMRLFVNIEEILENIQEYMDGNKPNITTFEAASITDPVGLDHITRALEKCITYFGESSHGRLRLVTKFDHVDPYLKLPHNGHTTFRFTINTQWVIKNFEHHTSSAHERVEGAKKIAHANYPLGFIIAPIMLYDHWEKDYKDLLEELSLALKDYEKPIGFEMIQHRFTSKAKDLILQRFPNTKLNLDEESRKLKWGPYGQFKYVYPTEKSDYMRDYLTGLIKDLFPNGRIEYFTEGHHHHHH,not soluble
18,MSLDLPYLSPTPFIKPVPSFKKYSMGFYPIVDSSHWLEMLLPLGIKCIQLRIKEASQERLEEEIKRSVHLANQYNAALFINDHWELAIHYGAAGVHLGQEDLEKADVDRINRSGLFLGISTHCYYEVARAHALNPSYVACGPIYETTSKIMPFQAQGIARLERWRKTLRYPLVAIGGITLKNLSDVLKTKIDGVSVISAITKASAPLVAAKQFLTQMNESHNEGHHHHHH,not soluble
19,MSLDLRLEELAILGVKLPHDFSPEVQGPLFSSQGLNNISDIAHLSNNENLSYLMTATIENNKVKLDHFVQFLPMIMKFGNSEQRFQLQPKKDTNAPKPTTNKSRGYAKPKRGFGFVDLDDAPSSQPEPSDAEITRNNFDLEQTYWSKNFVNITRVGSRTILEPAIGASLTTYNSGQCYILRLPRKLLISTNTEWPDFISRKIELDGKPLPIPSDNLTEISSREDIISCSYVNDKIDSNWGAVVSLSKSSSENLKVVGIEKQSMVLRESTPMNEGHHHHHH,soluble
